Paper PMC3324284
Values joined by “and” are separate entries in the source; they are usually repeats but may differ in a detail not shown here. Identical values can stand only once. Like-named read-outs stand apart in the source and are kept apart here.

Columns and labels:
[1] = target: Mga4-His6 (Group A Streptococcus (Streptococcus pyogenes), M4 serotype strain GA40634); test: AUC
[2] = target: Mga4-His6 (Group A Streptococcus (Streptococcus pyogenes), M4 serotype strain GA40634); test: SEC
[3] = target: Mga4-His6 (Group A Streptococcus (Streptococcus pyogenes), M4 serotype strain GA40634); test: AUC; remark: listed apart in the source

Question: For Mga4-His6 (natural protein), which Kd [1] is on record?
Answer: 6.13 µM

Question: And the stoichiometry N [2]?
Answer: 2 and 4 and 6

Question: What about the Kd [3] of the same substance?
Answer: 9.41 µM
